Source: patent US20030120051A1 (SUGEN, published 2003)
Each block holds one binder with its values, some of them ahead of it.

Key:
[1] = biological target: human c-Src (human, UniProt P12931 2-536); assay: immunoprecipitation of transfected COS7 lysates with antibodies against c-Src, immunoblotting with anti-fusion antibodies
[2] = biological target: T1, human CASPR/p190 (human, UniProt P78357 20-1384); assay: immunoprecipitation of IMR-32 lysates with CASPR/p190 antibodies, immunoblotting with contactin antibodies
T1 construct: Endogenous in IMR-32 neuroblastoma cells
T1 sequence: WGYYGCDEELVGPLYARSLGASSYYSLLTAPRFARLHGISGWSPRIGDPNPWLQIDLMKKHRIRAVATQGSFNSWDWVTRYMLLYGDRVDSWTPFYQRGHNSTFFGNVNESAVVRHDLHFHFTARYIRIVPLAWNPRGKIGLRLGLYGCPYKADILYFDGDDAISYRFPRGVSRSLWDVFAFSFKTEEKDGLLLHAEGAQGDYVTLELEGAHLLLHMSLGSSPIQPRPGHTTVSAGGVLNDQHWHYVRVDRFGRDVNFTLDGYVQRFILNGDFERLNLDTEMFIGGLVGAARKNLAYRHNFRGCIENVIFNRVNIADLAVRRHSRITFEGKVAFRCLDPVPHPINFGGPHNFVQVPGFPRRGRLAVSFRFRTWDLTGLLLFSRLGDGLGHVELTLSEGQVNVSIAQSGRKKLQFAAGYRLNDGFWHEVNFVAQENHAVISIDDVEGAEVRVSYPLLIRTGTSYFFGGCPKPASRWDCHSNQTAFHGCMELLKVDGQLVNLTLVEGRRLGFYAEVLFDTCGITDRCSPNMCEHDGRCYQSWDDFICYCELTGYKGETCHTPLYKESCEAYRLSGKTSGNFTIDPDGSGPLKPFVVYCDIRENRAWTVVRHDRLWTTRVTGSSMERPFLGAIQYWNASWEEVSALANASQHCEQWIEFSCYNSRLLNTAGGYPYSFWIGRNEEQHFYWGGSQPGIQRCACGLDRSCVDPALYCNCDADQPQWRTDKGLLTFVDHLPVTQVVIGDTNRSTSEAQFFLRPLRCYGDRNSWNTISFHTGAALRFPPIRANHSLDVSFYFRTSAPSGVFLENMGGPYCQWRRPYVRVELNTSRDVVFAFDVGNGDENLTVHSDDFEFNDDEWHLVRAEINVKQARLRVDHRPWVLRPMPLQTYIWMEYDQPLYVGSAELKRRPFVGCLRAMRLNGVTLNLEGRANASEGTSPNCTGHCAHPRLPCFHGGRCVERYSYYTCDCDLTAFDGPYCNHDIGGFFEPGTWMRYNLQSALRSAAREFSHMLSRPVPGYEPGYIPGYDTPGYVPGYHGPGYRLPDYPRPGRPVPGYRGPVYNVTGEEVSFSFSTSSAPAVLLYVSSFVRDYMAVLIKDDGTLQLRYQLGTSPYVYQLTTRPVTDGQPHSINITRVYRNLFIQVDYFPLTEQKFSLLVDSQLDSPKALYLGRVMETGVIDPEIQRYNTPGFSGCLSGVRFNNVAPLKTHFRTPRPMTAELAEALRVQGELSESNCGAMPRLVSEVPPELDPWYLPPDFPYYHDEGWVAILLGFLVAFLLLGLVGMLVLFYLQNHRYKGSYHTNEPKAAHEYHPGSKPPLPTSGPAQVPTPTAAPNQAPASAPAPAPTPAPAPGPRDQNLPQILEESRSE

[3] = biological target: T2, rat CASPR/p190 (rat, UniProt P97846 21-1381); assay: co-precipitation of p190 with contactin by the RPTPβ Fc fusion from GH3 membrane extracts
T2 construct: Endogenous in GH3 cells and rat brain, or expressed from pCM190R in COS7 cells; read from membrane lysates; no cleavage site stated; also called Contactin ASsociated PRotein; 190 kDa protein
T2 sequence: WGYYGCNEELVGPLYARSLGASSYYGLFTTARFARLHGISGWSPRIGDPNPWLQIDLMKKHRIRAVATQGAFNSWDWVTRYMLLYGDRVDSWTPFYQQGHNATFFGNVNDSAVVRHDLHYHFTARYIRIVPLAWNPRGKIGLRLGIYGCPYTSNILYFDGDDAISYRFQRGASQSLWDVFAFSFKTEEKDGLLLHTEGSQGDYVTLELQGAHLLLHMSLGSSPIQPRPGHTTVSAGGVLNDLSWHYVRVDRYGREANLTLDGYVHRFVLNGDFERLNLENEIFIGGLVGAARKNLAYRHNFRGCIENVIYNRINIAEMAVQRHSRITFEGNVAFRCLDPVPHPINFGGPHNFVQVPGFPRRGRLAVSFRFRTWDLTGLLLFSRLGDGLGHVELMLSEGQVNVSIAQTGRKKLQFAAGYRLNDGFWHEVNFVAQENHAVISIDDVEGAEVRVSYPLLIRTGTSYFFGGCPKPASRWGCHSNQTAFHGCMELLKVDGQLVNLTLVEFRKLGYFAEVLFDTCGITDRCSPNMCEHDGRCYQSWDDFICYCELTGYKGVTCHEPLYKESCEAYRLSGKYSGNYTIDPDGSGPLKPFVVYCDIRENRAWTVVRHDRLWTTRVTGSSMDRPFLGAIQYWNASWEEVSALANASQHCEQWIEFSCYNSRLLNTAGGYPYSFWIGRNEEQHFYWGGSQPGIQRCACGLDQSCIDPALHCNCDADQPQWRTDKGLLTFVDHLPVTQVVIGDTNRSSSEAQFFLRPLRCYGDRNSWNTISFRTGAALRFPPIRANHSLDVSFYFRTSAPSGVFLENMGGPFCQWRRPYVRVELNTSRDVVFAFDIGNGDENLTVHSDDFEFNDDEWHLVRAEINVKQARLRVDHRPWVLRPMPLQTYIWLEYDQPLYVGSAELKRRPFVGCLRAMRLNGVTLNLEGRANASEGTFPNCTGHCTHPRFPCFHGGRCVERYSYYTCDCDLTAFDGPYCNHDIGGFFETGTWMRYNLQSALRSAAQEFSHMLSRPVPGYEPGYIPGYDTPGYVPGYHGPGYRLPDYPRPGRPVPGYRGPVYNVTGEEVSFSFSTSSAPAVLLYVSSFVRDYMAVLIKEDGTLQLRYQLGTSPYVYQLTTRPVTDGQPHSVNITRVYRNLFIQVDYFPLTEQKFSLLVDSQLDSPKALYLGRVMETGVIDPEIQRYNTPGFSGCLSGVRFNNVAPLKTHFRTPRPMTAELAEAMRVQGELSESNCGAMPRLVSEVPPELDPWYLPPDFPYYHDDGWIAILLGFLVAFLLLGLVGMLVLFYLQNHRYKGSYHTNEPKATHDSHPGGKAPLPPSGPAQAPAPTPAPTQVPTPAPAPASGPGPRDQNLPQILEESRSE

binding result [1]: binds
B1: HA-tagged rat CASPR/p190 (pCM190HA) (receptor, not shown: small tags and cut ends)
chain: WGYYGCNEELVGPLYARSLGASSYYGLFTTARFARLHGISGWSPRIGDPNPWLQIDLMKKHRIRAVATQGAFNSWDWVTRYMLLYGDRVDSWTPFYQQGHNATFFGNVNDSAVVRHDLHYHFTARYIRIVPLAWNPRGKIGLRLGIYGCPYTSNILYFDGDDAISYRFQRGASQSLWDVFAFSFKTEEKDGLLLHTEGSQGDYVTLELQGAHLLLHMSLGSSPIQPRPGHTTVSAGGVLNDLSWHYVRVDRYGREANLTLDGYVHRFVLNGDFERLNLENEIFIGGLVGAARKNLAYRHNFRGCIENVIYNRINIAEMAVQRHSRITFEGNVAFRCLDPVPHPINFGGPHNFVQVPGFPRRGRLAVSFRFRTWDLTGLLLFSRLGDGLGHVELMLSEGQVNVSIAQTGRKKLQFAAGYRLNDGFWHEVNFVAQENHAVISIDDVEGAEVRVSYPLLIRTGTSYFFGGCPKPASRWGCHSNQTAFHGCMELLKVDGQLVNLTLVEFRKLGYFAEVLFDTCGITDRCSPNMCEHDGRCYQSWDDFICYCELTGYKGVTCHEPLYKESCEAYRLSGKYSGNYTIDPDGSGPLKPFVVYCDIRENRAWTVVRHDRLWTTRVTGSSMDRPFLGAIQYWNASWEEVSALANASQHCEQWIEFSCYNSRLLNTAGGYPYSFWIGRNEEQHFYWGGSQPGIQRCACGLDQSCIDPALHCNCDADQPQWRTDKGLLTFVDHLPVTQVVIGDTNRSSSEAQFFLRPLRCYGDRNSWNTISFRTGAALRFPPIRANHSLDVSFYFRTSAPSGVFLENMGGPFCQWRRPYVRVELNTSRDVVFAFDIGNGDENLTVHSDDFEFNDDEWHLVRAEINVKQARLRVDHRPWVLRPMPLQTYIWLEYDQPLYVGSAELKRRPFVGCLRAMRLNGVTLNLEGRANASEGTFPNCTGHCTHPRFPCFHGGRCVERYSYYTCDCDLTAFDGPYCNHDIGGFFETGTWMRYNLQSALRSAAQEFSHMLSRPVPGYEPGYIPGYDTPGYVPGYHGPGYRLPDYPRPGRPVPGYRGPVYNVTGEEVSFSFSTSSAPAVLLYVSSFVRDYMAVLIKEDGTLQLRYQLGTSPYVYQLTTRPVTDGQPHSVNITRVYRNLFIQVDYFPLTEQKFSLLVDSQLDSPKALYLGRVMETGVIDPEIQRYNTPGFSGCLSGVRFNNVAPLKTHFRTPRPMTAELAEAMRVQGELSESNCGAMPRLVSEVPPELDPWYLPPDFPYYHDDGWIAILLGFLVAFLLLGLVGMLVLFYLQNHRYKGSYHTNEPKATHDSHPGGKAPLPPSGPAQAPAPTPAPTQVPTPAPAPASGPGPRDQNLPQILEESRSE
notes: Expressed in COS7 cells; also called tagged CASPR/p190; CASPR/p190 fusion proteins

binding result [2]: binds
B2: human contactin of IMR-32 neuroblastoma cells (140 kDa protein) (receptor, UniProt Q12860 21-993, looked up)
chain: EFTWYRRYGHGVSEEDKGFGPIFEEQPINTIYPEESLEGKVSLNCRARASPFPVYKWRMNNGDVDLTSDRYSMVGGNLVINNPDKQKDAGIYYCLASNNYGMVRSTEATLSFGYLDPFPPEERPEVRVKEGKGMVLLCDPPYHFPDDLSYRWLLNEFPVFITMDKRRFVSQTNGNLYIANVEASDKGNYSCFVSSPSITKSVFSKFIPLIPIPERTTKPYPADIVVQFKDVYALMGQNVTLECFALGNPVPDIRWRKVLEPMPSTAEISTSGAVLKIFNIQLEDEGIYECEAENIRGKDKHQARIYVQAFPEWVEHINDTEVDIGSDLYWPCVATGKPIPTIRWLKNGYAYHKGELRLYDVTFENAGMYQCIAENTYGAIYANAELKILALAPTFEMNPMKKKILAAKGGRVIIECKPKAAPKPKFSWSKGTEWLVNSSRILIWEDGSLEINNITRNDGGIYTCFAENNRGKANSTGTLVITDPTRIILAPINADITVGENATMQCAASFDPALDLTFVWSFNGYVIDFNKENIHYQRNFMLDSNGELLIRNAQLKHAGRYTCTAQTIVDNSSASADLVVRGPPGPPGGLRIEDIRATSVALTWSRGSDNHSPISKYTIQTKTILSDDWKDAKTDPPIIEGNMEAARAVDLIPWMEYEFRVVATNTLGRGEPSIPSNRIKTDGAAPNVAPSDVGGGGGRNRELTITWAPLSREYHYGNNFGYIVAFKPFDGEEWKKVTVTNPDTGRYVHKDETMSPSTAFQVKVKAFNNKGDGPYSLVAVINSAQDAPSEAPTEVGVKVLSSSEISVHWEHVLEKIVESYQIRYWAAHDKEEAANRVQVTSQEYSARLENLLPDTQYFIEVGACNSAGCGPPSDMIEAFTKKAPPSQPPRIISSVRSGSRYIITWDHVVALSNESTVTGYKVLYRPDGQHDGKLYSTHKHSIEVPIPRDGEYVVEVRAHSDGGDGVVSQVKIS
modifications: GPI-anchored
notes: whole, on cells; also called p140

binding result [3]: binds
B3: rat contactin (clone F8; p140 of GH3 cells) (receptor, UniProt Q63198 21-1001, looked up)
chain: EFTWHRRYGHGVSEEDKGFGPIFEEQPINTIYPEESLEGKVSLNCRARASPFPVYKWRMNNGDVDLTNDRYSMVGGNLVINNPDKQKDAGIYYCLASNNYGMVRSTEATLSFGYLDPFPPEDRPEVKVKEGKGMVLLCDPPYHFPDDLSYRWLLNEFPVFITMDKRRFVSQTNGNLYIANVESSDRGNYSCFVSSPSITKSVFSKFIPLIPIPERTTKPYPADIVVQFKDIYTMMGQNVTLECFALGNPVPDIRWRKVLEPMPTTAEISTSGAVLKIFNIQLEDEGLYECEAENIRGKDKHQARIYVQAFPEWVEHINDTEVDIGSDLYWPCVATGKPIPTIRWLKNGYAYHKGELRLYDVTFENAGMYQCIAENAYGTIYANAELKILALAPTFEMNPMKKKILAAKGGRVIIECKPKAAPKPKFSWSKGTEWLVNSSRILIWEDGSLEINNITRNDGGIYTCFAENNRGKANSTGTLVITNPTRIILAPINADITVGENATMQCAASFDPSLDLTFVWSFNGYVIDFNKEITNIHYQRNFMLDANGELLIRNAQLKHAGRYTCTAQTIVDNSSASADLVVRGPPGPPGGLRIEDIRATSVALTWSRGSDNHSPISKYTIQTKTILSDDWKDAKTDPPIIEGNMESAKAVDLIPWMEYEFRVVATNTLGTGEPSIPSNRIKTDGAAPNVAPSDVGGGGGTNRELTITWAPLSREYHYGNNFGYIVAFKPFDGEEWKKVTVTNPDTGRYVHKDETMTPSTAFQVKVKAFNNKGDGPYSLIAVINSAQDAPSEAPTEVGVKVLSSSEISVHWKHVLEKIVESYQIRYWAGHDKEAAAHRVQVTSQEYSARLENLLPDTQYFIEVGACNSAGCGPSSDVIETFTRKAPPSQPPRIISSVRSGSRYIITWDHVVALSNESTVTGYKILYRPDGQHDGKLFSTHKHSIEVPIPRDGEYVVEVRAHSDGGDGVVSQVKISGVSTLS
modifications: GPI-anchored
notes: whole, on cells; On transfected COS7 cells, on GH3 cells, in solubilized GH3 membranes or in rat brain membranes, as the entry says; also called rat homologue of contactin; F3/F11
